By Kd is commonly meant a measure of binding affinity in units of concentration.

The record followed here is patent publication US20060088510A1 (BRIGHAM AND WOMEN S HOSPITAL, published 2006).

No end group written: not given here.

The target of the test is T1, Streptavidin (UniProt P22629 37-163, limits assumed).
T1 construct: also called 35S-streptavidin; Radiolabeled Streptavidin (35S-SLR labeled)
The experiment in a line: radioligand binding assay, 35S-streptavidin on 1:100 biotinylated:nonbiotinylated self-assembling peptides (1% w/v). The text has this:
We have previously shown that biotinylated peptides can be synthesized and incorporated with self-assembling (Davis, et al., Circ Res 97: 8-15 (2005)). To allow sufficient distance from the peptide to allow streptavidin binding (Livnah, et al., Proc Natl Acad Sci USA 90:5076-5080 (1993); Pugliese, et al., J. Mol Biol 231:698-710 (1993)), the biotin was attached to the peptide by two N-e-Fmoc-e-aminocaproic acids.

T1 sequence (P22629 37-163 limits assumed): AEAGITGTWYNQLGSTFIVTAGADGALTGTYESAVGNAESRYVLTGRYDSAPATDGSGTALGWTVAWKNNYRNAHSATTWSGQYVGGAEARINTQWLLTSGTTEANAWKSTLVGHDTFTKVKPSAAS

B1: Biotinylated RAD16-II peptide (peptide)
peptide: RARADADARARADADA-NH2
modifications: not fully specified (N-terminus); also: biotin linked via 2 aminocaproic acid groups, attachment residue not given here
notes: Synthetic self-assembling peptide; In the assays it was mixed 1:100 with nonbiotinylated RAD16-II (1% final peptide weight/volume) and assembled into fibers; also called biotinylated self-assembling peptides; biotinylated peptides
The molecule B1 displayed a Kd of 190 nM.
